Columns and labels:
[1] = test system: HeLa Kyoto; experiment: solubility in G1/S (NP-40 vs SDS abundance) (log2 ratio); higher = more soluble; conditions: cell cycle stage: G1/S
[2] = test system: HeLa Kyoto; experiment: melting temperature (median over replicates), in situ; higher = more thermally stable
[3] = test system: HeLa Kyoto; experiment: solubility change mitosis vs G1/S (difference of NP-40 vs SDS log2 ratios) (log2 ratio difference); higher = more soluble in mitosis
[4] = test system: HeLa Kyoto; experiment: thermal stability score vs G1/S (z-score of summed log2 fold changes over temperatures); higher = more thermally stable than in G1/S
[5] = cell cycle stage: early G1 (4.5 h after nocodazole release)
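Throughout, for melting temperature (median over replicates), in situ: HeLa Kyoto cells synchronized by double thymidine or nocodazole block, proteins quantified by TMT10plex mass spectrometry, three independent biological replicates.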
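Throughout, for solubility change mitosis vs G1/S (difference of NP-40 vs SDS log2 ratios): synchronized HeLa Kyoto cells (double thymidine block for G1/S, nocodazole release for mitosis), protein amounts in NP-40 versus SDS lysates quantified by mass spectrometry, three biological replicates.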
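Throughout, for solubility in G1/S (NP-40 vs SDS abundance): HeLa Kyoto cells arrested at G1/S by double thymidine block, proteins quantified by TMT10plex mass spectrometry in mild NP-40 versus SDS extracts, three biological replicates.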
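Throughout, for thermal stability score vs G1/S (z-score of summed log2 fold changes over temperatures): synchronized HeLa Kyoto cells, proteins quantified by TMT10plex mass spectrometry, three biological replicates, mitosis taken 0.5 h after nocodazole release, G1/S directly after double thymidine block.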

Row | Sequence | solubility in G1/S (log2) [1] | melting temperature ([2]; cell cycle stage: G1/S) | melting temperature ([2]; cell cycle stage: mitosis) | solubility change mitosis (log2) [3] | thermal stability score [4, 5] | thermal stability score ([4]; cell cycle stage: mitosis)
1 | MNREDRNVLRMKERERRNQEIQQGEDAFPPSSPLFAEPYKVTSKEDKLSSRIQSMLGNYDEMKDFIGDRSIPKLVAIPKPTVPPSADEKSNPNFFEQRHGGSHQSSKWTPVGPAPSTSQSQKRSSGLQSGHSSQRTSAGSSSGTNSSGQRHDRESYNNSGSSSRKKGQHGSEHSKSRSSSPGKPQAVSSLNSSHSRSHGNDHHSKEHQRSKSPRDPDANWDSPSRVPFSSGQHSTQSFPPSLMSKSNSMLQKPTAYVRPMDGQESMEPKLSSEHYSSQSHGNSMTELKPSSKAHLTKLKIPSQPLDASASGDVSCVDEILKEMTHSWPPPLTAIHTPCKTEPSKFPFPTKESQQSNFGTGEQKRYNPSKTSNGHQSKSMLKDDLKLSSSEDSDGEQDCDKTMPRSTPGSNSEPSHHNSEGADNSRDDSSSHSGSESSSGSDSESESSSSDSEANEPSQSASPEPEPPPTNKWQLDNWLNKVNPHKVSPASSVDSNIPSSQGYKKEGREQGTGNSYTDTSGPKETSSATPGRDSKTIQKGSESGRGRQKSPAQSDSTTQRRTVGKKQPKKAEKAAAEEPRGGLKIESETPVDLASSMPSSRHKAATKGSRKPNIKKESKSSPRPTAEKKKYKSTSKSSQKSREIIETDTSSSDSDESESLPPSSQTPKYPESNRTPVKPSSVEEEDSFFRQRMFSPMEEKELLSPLSEPDDRYPLIVKIDLNLLTRIPGKPYKETEPPKGEKKNVPEKHTREAQKQASEKVSNKGKRKHKNEDDNRASESKKPKTEDKNSAGHKPSSNRESSKQSAAKEKDLLPSPAGPVPSKDPKTEHGSRKRTISQSSSLKSSSNSNKETSGSSKNSSSTSKQKKTEGKTSSSSKEVKEKAPSSSSNCPPSAPTLDSSKPRRTKLVFDDRNYSADHYLQEAKKLKHNADALSDRFEKAVYYLDAVVSFIECGNALEKNAQESKSPFPMYSETVDLIKYTMKLKNYLAPDATAADKRLTVLCLRCESLLYLRLFKLKKENALKYSKTLTEHLKNSYNNSQAPSPGLGSKAVGMPSPVSPKLSPGNSGNYSSGASSASASGSSVTIPQKIHQMAASYVQVTSNFLYATEIWDQAEQLSKEQKEFFAELDKVMGPLIFNASIMTDLVRYTRQGLHWLRQDAKLIS [AFF4] | 0.00478 | 48.6 °C | 51 °C | 0.309 | 0.474 | 1.75
2 | MNRTKGDEEEYWNSSKFKAFTFDDEDDELSQLKESKRAVNSLRDFVDDDDDDDLERVSWSGEPVGSISWSIRETAGNSGSTHEGREQLKSRNSFSSYAQLPKPTSTYSLSSFFRGRTRPGSFQSLSDALSDTPAKSYAPELGRPKGEYRDYSNDWSPSDTVRRLRKGKVCSLERFRSLQDKLQLLEEAVSMHDGNVITAVLIFLKRTLSKEILFRELEVRQVALRHLIHFLKEIGDQKLLLDLFRFLDRTEELALSHYREHLNIQDPDKRKEFLKTCVGLPFSAEDSAHIQDHYTLLERQIIIEANDRHLESAGQTEIFRKHPRKASILNMPLVTTLFYSCFYHYTEAEGTFSSPVNLKKTFKIPDKQYVLTALAARAKLRAWNDVDALFTTKNWLGYTKKRAPIGFHRVVEILHKNNAPVQILQEYVNLVEDVDTKLNLATKFKCHDVVIDTYRDLKDRQQLLAYRSKVDKGSAEEEKIDALLSSSQIRWKN [VIPAS39] | 0.111 | 49.5 °C | 49.2 °C | -0.125 | 0.126 | 0.142
3 | MNSAEQTVTWLITLGVLESPKKTISDPEGFLQASLKDGVVLCRLLERLLPGTIEKVYPEPRSESECLSNIREFLRGCGASLRLELLFPPSQPPQHLVTTILLSASTFDANDLYQGQNFNKVLSSLVTLNKVTADIGLGSDSVCARPSSHRIKSFDSLGSQSLHTRTSKLFQGQYRSLDMTDNSNNQLVVRAKFNFQQTNEDELSFSKGDVIHVTRVEEGGWWEGTLNGRTGWFPSNYVREVKASEKPVSPKSGTLKSPPKGFDTTAINKSYYNVVLQNILETENEYSKELQTVLSTYLRPLQTSEKLSSANISYLMGNLEEICSFQQMLVQSLEECTKLPEAQQRVGGCFLNLMPQMKTLYLTYCANHPSAVNVLTEHSEELGEFMETKGASSPGILVLTTGLSKPFMRLDKYPTLLKELERHMEDYHTDRQDIQKSMAAFKNLSAQCQEVRKRKELELQILTEAIRNWEGDDIKTLGNVTYMSQVLIQCAGSEEKNERYLLLFPNVLLMLSASPRMSGFIYQGKLPTTGMTITKLEDSENHRNAFEISGSMIERILVSCNNQQDLQEWVEHLQKQTKVTSVGNPTIKPHSVPSHTLPSHPVTPSSKHADSKPAPLTPAYHTLPHPSHHGTPHTTINWGPLEPPKTPKPWSLSCLRPAPPLRPSAALCYKEDLSKSPKTMKKLLPKRKPERKPSDEEFASRKSTAALEEDAQILKVIEAYCTSAKTRQTLNSTWQGTDLMHNHVLADDDQPSLDSLGRRSSLSRLEPSDLSEDSDYDSIWTAHSYRMGSTSRKSCCSYISHQN [ARHGEF7] | 0.105 | 48.5 °C | 49.6 °C | -0.0942 | 0.815 | 1.6
4 | MNSNVENLPPHIIRLVYKEVTTLTADPPDGIKVFPNEEDLTDLQVTIEGPEGTPYAGGLFRMKLLLGKDFPASPPKGYFLTKIFHPNVGANGEICVNVLKRDWTAELGIRHVLLTIKCLLIHPNPESALNEEAGRLLLENYEEYAARARLLTEIHGGAGGPSGRAEAGRALASGTEASSTDPGAPGGPGGAEGPMAKKHAGERDKKLAAKKKTDKKRALRRL [UBE2S] | 0.347 | 51 °C | 50.9 °C | 0.0837 | 1.11 | 0.461
5 | MNSSTSTMSEEPDALSVVNQLRDLAADPLNRRAIVQDQGCLPGLILFMDHPNPPVVHSALLALRYLAECRANREKMKGELGMMLSLQNVIQKTTTPGETKLLASEIYDILQSSNMADGDSFNEMNSRRRKAQFFLGTTNKRAKTVVLHIDGLDDTSRRNLCEEALLKIKGVISFTFQMAVQRCVVRIRSDLKAEALASAIASTKVMKAQQVVKSESGEEMLVPFQDTPVEVEQNTELPDYLPEDESPTKEQDKAVSRVGSHPEGGASWLSTAANFLSRSFYW [ARMC1] | 0.386 | 50.6 °C | 50.8 °C | 0.0691 | 0.134 | 0.316
6 | MNTAPSRPSPTRRDPYGFGDSRDSRRDRSPIRGSPRREPRDGRNGRDARDSRDIRDPRDLRDHRHSRDLRDHRDSRSVRDVRDVRDLRDFRDLRDSRDFRDQRDPMYDRYRDMRDSRDPMYRREGSYDRYLRMDDYCRRKDDSYFDRYRDSFDGRGPPGPESQSRAKERLKREERRREELYRQYFEEIQRRFDAERPVDCSVIVVNKQTKDYAESVGRKVRDLGMVVDLIFLNTEVSLSQALEDVSRGGSPFAIVITQQHQIHRSCTVNIMFGTPQEHRNMPQADAMVLVARNYERYKNECREKEREEIARQAAKMADEAILQERERGGPEEGVRGGHPPAIQSLINLLADNRYLTAEETDKIINYLRERKERLMRSSTDSLPGPISRQPLGATSGASLKTQPSSQPLQSGQVLPSATPTPSAPPTSQQELQAKILSLFNSGTVTANSSSASPSVAAGNTPNQNFSTAANSQPQQRSQASGNQPPSILGQGGSAQNMGPRPGAPSQGLFGQPSSRLAPASNMTSQRPVSSTGINFDNPSVQKALDTLIQSGPALSHLVSQTTAQMGQPQAPMGSYQRHY [NCOA5] | -0.619 | 49.9 °C | 49.1 °C | 0.489 | 0.658 | 1.68
7 | MNTEAEQQLLHHARNGNAEEVRQLLETMARNEVIADINCKGRSKSNLGWTPLHLACYFGHRQVVQDLLKAGAEVNVLNDMGDTPLHRAAFTGRKELVMLLLEYNADTTIVNGSGQTAKEVTHAEEIRSMLEAVERTQQRKLEELLLAAAREGKTTELTALLNRPNPPDVNCSDQLGNTPLHCAAYRAHKQCALKLLRSGADPNLKNKNDQKPLDLAQGAEMKHILVGNKVIYKALKRYEGPLWKSSRFFGWRLFWVVLEHGVLSWYRKQPDAVHNIYRQGCKHLTQAVCTVKSTDSCLFFIKCFDDTIHGFRVPKNSLQQSREDWLEAIEEHSAYSTHYCSQDQLTDEEEEDTVSAADLKKSLEKAQSCQQRLDREISNFLKMIKECDMAKEMLPSFLQKVEVVSEASRETCVALTDCLNLFTKQEGVRNFKLEQEQEKNKILSEALETLATEHHELEQSLVKGSPPASILSEDEFYDALSDSESERSLSRLEAVTARSFEEEGEHLGSRKHRMSEEKDCGGGDALSNGIKKHRTSLPSPMFSRNDFSIWSILRKCIGMELSKITMPVIFNEPLSFLQRLTEYMEHTYLIHKASSLSDPVERMQCVAAFAVSAVASQWERTGKPFNPLLGETYELVRDDLGFRLISEQVSHHPPISAFHAEGLNNDFIFHGSIYPKLKFWGKSVEAEPKGTITLELLEHNEAYTWTNPTCCVHNIIVGKLWIEQYGNVEIINHKTGDKCVLNFKPCGLFGKELHKVEGYIQDKSKKKLCALYGKWTECLYSVDPATFDAYKKNDKKNTEEKKNSKQMSTSEELDEMPVPDSESVFIIPGSVLLWRIAPRPPNSAQMYNFTSFAMVLNEVDKDMESVIPKTDCRLRPDIRAMENGEIDQASEEKKRLEEKQRAARKNRSKSEEDWKTRWFHQGPNPYNGAQDWIYSGSYWDRNYFNLPDIY [OSBPL1A] | 0.0257 | 51 °C | 51 °C | -0.0641 | -0.0179 | -0.158
8 | MNTVLSRANSLFAFSLSVMAALTFGCFITTAFKDRSVPVRLHVSRIMLKNVEDFTGPRERSDLGFITFDITADLENIFDWNVKQLFLYLSAEYSTKNNALNQVVLWDKIVLRGDNPKLLLKDMKTKYFFFDDGNGLKGNRNVTLTLSWNVVPNAGILPLVTGSGHVSVPFPDTYEITKSY [SPCS3] | 0.0331 | 53.5 °C | 53.8 °C | -0.0576 | 0.503 | 1.67
9 | MNVTPEVKSRGMKFAEEQLLKHGWTQGKGLGRKENGITQALRVTLKQDTHGVGHDPAKEFTNHWWNELFNKTAANLVVETGQDGVQIRSLSKETTRYNHPKPNLLYQKFVKMATLTSGGEKPNKDLESCSDDDNQGSKSPKILTDEMLLQACEGRTAHKAARLGITMKAKLARLEAQEQAFLARLKGQDPGAPQLQSESKPPKKKKKKRRQKEEEEATASERNDADEKHPEHAEQNIRKSKKKKRRHQEGKVSDEREGTTKGNEKEDAAGTSGLGELNSREQTNQSLRKGKKKKRWHHEEEKMGVLEEGGKGKEAAGSVRTEEVESRAYADPCSRRKKRQQQEEEDLNLEDRGEETVLGGGTREAESRACSDGRSRKSKKKRQQHQEEEDILDVRDEKDGGAREAESRAHTGSSSRGKRKRQQHPKKERAGVSTVQKAKKKQKKRD [GPATCH4] | -1.28 | 47.5 °C | 48.6 °C | 0.885 | 1.12 | 2.93
